Test results: patent US20250320281A1

How the values were obtained:
Assay in all cases: cell-based or functional assay
[1] = target: HIV-1 92RW020 Env (pseudovirus) (HIV-1)
[2] = target: HIV-1 92TH021 Env (pseudovirus) (HIV-1)
[3] = target: HIV-1 92UG005 Env (pseudovirus) (HIV-1)
[4] = target: HIV-1 92UG024 Env (pseudovirus) (HIV-1)
[5] = target: HIV-1 93IN905 Env (pseudovirus) (HIV-1)
[6] = target: HIV-1 94UG103 Env (pseudovirus) (HIV-1)
[7] = target: HIV-1 APV6 Env (pseudovirus) (HIV-1)
[8] = target: HIV-1 CMU02 Env (pseudovirus) (HIV-1)
[9] = target: HIV-1 JRCSF Env (pseudovirus) (HIV-1) (UniProt P20871)
[10] = target: HIV-1 MGRM-A-010 Env (pseudovirus) (HIV-1)
[11] = target: HIV-1 MGRM-C-026 Env (pseudovirus) (HIV-1)
[12] = target: HIV-1 MGRM-C-027 Env (pseudovirus) (HIV-1)
[13] = target: HIV-1 MGRM-C-028 Env (pseudovirus) (HIV-1)
[14] = target: HIV-1 MGRM-D-018 Env (pseudovirus) (HIV-1)
[15] = target: HIV-1 NL43 Env (pseudovirus) (HIV-1)
[16] = target: HIV-1 Env of isolate MGRM-C-004 (HIV-1)
[17] = target: HIV-1 Env of isolate MGRM-C-014 (HIV-1)
[18] = target: HIV-1 Env of isolate MGRM-C-015 (HIV-1)
[19] = target: HIV-1 Env of isolate MGRM-C-017 (HIV-1)
[20] = target: HIV-1 Env of isolate MGRM-C-019 (HIV-1)
[21] = target: HIV-1 Env of isolate MGRM-C-020 (HIV-1)
[22] = target: HIV-1 Env of isolate MGRM-C-022 (HIV-1)
[23] = target: HIV-1 Env of isolate MGRM-C-023 (HIV-1)
[24] = target: HIV-1 Env of isolate MGRM-C-024 (HIV-1)
[25] = target: HIV-1 Env of isolate MGRM-C-025 (HIV-1)
[26] = target: HIV-1 Env of isolate MGRM-C-001 (HIV-1)
[27] = target: HIV-1 Env of isolate MGRM-C-002 (HIV-1)
[28] = target: HIV-1 Env of isolate MGRM-C-005 (HIV-1)
[29] = target: HIV-1 Env of isolate MGRM-C-006 (HIV-1)
[30] = target: HIV-1 Env of isolate MGRM-C-007 (HIV-1)
[31] = target: HIV-1 Env of isolate MGRM-C-008 (HIV-1)
[32] = target: HIV-1 Env of isolate MGRM-C-009 (HIV-1)
[33] = target: HIV-1 Env of isolate MGRM-C-010 (HIV-1)
[34] = target: HIV-1 Env of isolate MGRM-C-012 (HIV-1)
[35] = target: HIV-1 Env of isolate MGRM-C-013 (HIV-1)

Chain of 4993_K13 (PGT-141) (antibody) (VH): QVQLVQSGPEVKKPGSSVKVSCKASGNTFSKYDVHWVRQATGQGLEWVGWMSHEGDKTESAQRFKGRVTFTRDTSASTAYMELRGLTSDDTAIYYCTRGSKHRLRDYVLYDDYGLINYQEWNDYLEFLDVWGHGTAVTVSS
Chain of 4993_K13 (PGT-141) (antibody) (VL): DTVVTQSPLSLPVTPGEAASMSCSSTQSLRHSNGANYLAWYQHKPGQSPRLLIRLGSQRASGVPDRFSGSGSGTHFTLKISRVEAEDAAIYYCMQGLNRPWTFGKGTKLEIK
Chain of 4980_N08 (PGT-143) (antibody) (VH): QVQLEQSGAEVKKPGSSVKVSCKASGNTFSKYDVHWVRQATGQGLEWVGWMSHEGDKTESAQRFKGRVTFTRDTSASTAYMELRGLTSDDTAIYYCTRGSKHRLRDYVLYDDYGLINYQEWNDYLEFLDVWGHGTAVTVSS
Chain of 4980_N08 (PGT-143) (antibody) (VL): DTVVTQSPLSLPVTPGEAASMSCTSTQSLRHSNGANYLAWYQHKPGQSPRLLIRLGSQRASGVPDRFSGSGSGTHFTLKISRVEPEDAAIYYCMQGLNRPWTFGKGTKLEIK
Chain of 4970_K22 (PGT-144) (antibody) (VH): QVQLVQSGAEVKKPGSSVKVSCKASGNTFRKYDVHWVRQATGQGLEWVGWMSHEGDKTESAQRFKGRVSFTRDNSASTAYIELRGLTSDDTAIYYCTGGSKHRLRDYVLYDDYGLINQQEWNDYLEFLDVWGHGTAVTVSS
Chain of 4970_K22 (PGT-144) (antibody) (VL): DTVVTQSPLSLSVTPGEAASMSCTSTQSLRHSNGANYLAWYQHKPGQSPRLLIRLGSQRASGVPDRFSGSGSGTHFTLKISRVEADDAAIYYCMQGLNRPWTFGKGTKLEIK
Chain of 4995_E20 (PGT-142) (antibody) (VH): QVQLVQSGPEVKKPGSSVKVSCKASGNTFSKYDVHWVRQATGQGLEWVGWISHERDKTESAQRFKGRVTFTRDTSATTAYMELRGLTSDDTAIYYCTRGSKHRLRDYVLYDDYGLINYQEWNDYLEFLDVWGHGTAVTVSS

Which neutralization IC50 (pseudovirus) [1] does the source give for 4970_K22 (PGT-144) (antibody) here?
Its neutralization IC50 (pseudovirus) is > 10 µg/mL.

And the IC50 (neutralizing activity, pseudovirus) [2]?
Its IC50 (neutralizing activity, pseudovirus) is 0.0934 µg/mL.

And the IC50 (neutralizing activity, pseudovirus) [3]?
The IC50 (neutralizing activity, pseudovirus) was > 10 µg/mL.

And the IC50 (neutralizing activity, pseudovirus) [4]?
The IC50 (neutralizing activity, pseudovirus) was > 10 µg/mL.

What about the IC50 (neutralizing activity, pseudovirus) [5] of the same substance?
The IC50 (neutralizing activity, pseudovirus) was 0.158 µg/mL.

And the IC50 (neutralizing activity, pseudovirus) [6]?
The IC50 (neutralizing activity, pseudovirus) was > 10 µg/mL.

What about the IC50 (neutralizing activity, pseudovirus) [7] of the same substance?
The IC50 (neutralizing activity, pseudovirus) was > 10 µg/mL.

And the IC50 (neutralizing activity, pseudovirus) [8]?
The IC50 (neutralizing activity, pseudovirus) was > 10 µg/mL.

What about the IC50 (neutralizing activity, pseudovirus) [9] of the same substance?
The IC50 (neutralizing activity, pseudovirus) was 0.128 µg/mL.

And the IC50 (neutralizing activity, pseudovirus) [10]?
The IC50 (neutralizing activity, pseudovirus) was 4.02 µg/mL.

What about the IC50 (neutralizing activity, pseudovirus) [11] of the same substance?
Its IC50 (neutralizing activity, pseudovirus) is > 10 µg/mL.

What about the IC50 (neutralizing activity, pseudovirus) [12] of the same substance?
Its IC50 (neutralizing activity, pseudovirus) is > 10 µg/mL.

What about the IC50 (neutralizing activity, pseudovirus) [13] of the same substance?
Its IC50 (neutralizing activity, pseudovirus) is > 10 µg/mL.

And the IC50 (neutralizing activity, pseudovirus) [14]?
The IC50 (neutralizing activity, pseudovirus) was > 10 µg/mL.

What about the IC50 (neutralizing activity, pseudovirus) [15] of the same substance?
The IC50 (neutralizing activity, pseudovirus) was > 10 µg/mL.

4980_N08 (PGT-143) (antibody) was tested. Which neutralization IC50 (pseudovirus) [1] did it give?
The neutralization IC50 (pseudovirus) was > 10 µg/mL.

What about the IC50 (neutralizing activity, pseudovirus) [2] of the same substance?
Its IC50 (neutralizing activity, pseudovirus) is 0.0028 µg/mL.

And the IC50 (neutralizing activity, pseudovirus) [3]?
The IC50 (neutralizing activity, pseudovirus) was > 10 µg/mL.

And the IC50 (neutralizing activity, pseudovirus) [4]?
Its IC50 (neutralizing activity, pseudovirus) is > 10 µg/mL.

And the IC50 (neutralizing activity, pseudovirus) [5]?
The IC50 (neutralizing activity, pseudovirus) was 0.0021 µg/mL.

What about the IC50 (neutralizing activity, pseudovirus) [6] of the same substance?
Its IC50 (neutralizing activity, pseudovirus) is > 10 µg/mL.

And the IC50 (neutralizing activity, pseudovirus) [7]?
The IC50 (neutralizing activity, pseudovirus) was 4.43 µg/mL.

What about the IC50 (neutralizing activity, pseudovirus) [8] of the same substance?
The IC50 (neutralizing activity, pseudovirus) was > 10 µg/mL.

What about the IC50 (neutralizing activity, pseudovirus) [9] of the same substance?
The IC50 (neutralizing activity, pseudovirus) was 0.0064 µg/mL.

And the IC50 (neutralizing activity, pseudovirus) [10]?
The IC50 (neutralizing activity, pseudovirus) was 0.0657 µg/mL.

And the IC50 (neutralizing activity, pseudovirus) [11]?
Its IC50 (neutralizing activity, pseudovirus) is > 10 µg/mL.

And the IC50 (neutralizing activity, pseudovirus) [12]?
The IC50 (neutralizing activity, pseudovirus) was 0.505 µg/mL.

And the IC50 (neutralizing activity, pseudovirus) [13]?
Its IC50 (neutralizing activity, pseudovirus) is 1.82 µg/mL.

And the IC50 (neutralizing activity, pseudovirus) [14]?
The IC50 (neutralizing activity, pseudovirus) was > 10 µg/mL.

And the IC50 (neutralizing activity, pseudovirus) [15]?
The IC50 (neutralizing activity, pseudovirus) was 0.585 µg/mL.

For 4993_K13 (PGT-141) (antibody), which neutralization IC50 (pseudovirus) [1] is on record?
Its neutralization IC50 (pseudovirus) is > 10 µg/mL.

What about the IC50 (neutralizing activity, pseudovirus) [2] of the same substance?
The IC50 (neutralizing activity, pseudovirus) was 0.0019 µg/mL.

And the IC50 (neutralizing activity, pseudovirus) [3]?
The IC50 (neutralizing activity, pseudovirus) was > 10 µg/mL.

What about the IC50 (neutralizing activity, pseudovirus) [4] of the same substance?
Its IC50 (neutralizing activity, pseudovirus) is > 10 µg/mL.

What about the IC50 (neutralizing activity, pseudovirus) [5] of the same substance?
The IC50 (neutralizing activity, pseudovirus) was 0.0016 µg/mL.

What about the IC50 (neutralizing activity, pseudovirus) [6] of the same substance?
The IC50 (neutralizing activity, pseudovirus) was > 10 µg/mL.

What about the IC50 (neutralizing activity, pseudovirus) [7] of the same substance?
Its IC50 (neutralizing activity, pseudovirus) is 5.08 µg/mL.

And the IC50 (neutralizing activity, pseudovirus) [8]?
The IC50 (neutralizing activity, pseudovirus) was > 10 µg/mL.

What about the IC50 (neutralizing activity, pseudovirus) [9] of the same substance?
Its IC50 (neutralizing activity, pseudovirus) is 0.0047 µg/mL.

What about the IC50 (neutralizing activity, pseudovirus) [10] of the same substance?
The IC50 (neutralizing activity, pseudovirus) was 0.0563 µg/mL.

What about the IC50 (neutralizing activity, pseudovirus) [11] of the same substance?
The IC50 (neutralizing activity, pseudovirus) was > 10 µg/mL.

What about the IC50 (neutralizing activity, pseudovirus) [12] of the same substance?
Its IC50 (neutralizing activity, pseudovirus) is 0.822 µg/mL.

And the IC50 (neutralizing activity, pseudovirus) [13]?
The IC50 (neutralizing activity, pseudovirus) was 2.35 µg/mL.

What about the IC50 (neutralizing activity, pseudovirus) [14] of the same substance?
The IC50 (neutralizing activity, pseudovirus) was > 10 µg/mL.

And the IC50 (neutralizing activity, pseudovirus) [15]?
Its IC50 (neutralizing activity, pseudovirus) is 0.856 µg/mL.

With 4995_E20 (PGT-142) (antibody) as the substance, how does the neutralization IC50 (pseudovirus) [1] read?
Its neutralization IC50 (pseudovirus) is > 10 µg/mL.

What about the IC50 (neutralizing activity, pseudovirus) [2] of the same substance?
Its IC50 (neutralizing activity, pseudovirus) is 0.0022 µg/mL.

What about the IC50 (neutralizing activity, pseudovirus) [3] of the same substance?
The IC50 (neutralizing activity, pseudovirus) was > 10 µg/mL.

And the IC50 (neutralizing activity, pseudovirus) [4]?
Its IC50 (neutralizing activity, pseudovirus) is > 10 µg/mL.

What about the IC50 (neutralizing activity, pseudovirus) [5] of the same substance?
Its IC50 (neutralizing activity, pseudovirus) is 0.0017 µg/mL.

And the IC50 (neutralizing activity, pseudovirus) [6]?
Its IC50 (neutralizing activity, pseudovirus) is > 10 µg/mL.

What about the IC50 (neutralizing activity, pseudovirus) [7] of the same substance?
The IC50 (neutralizing activity, pseudovirus) was 5.42 µg/mL.

And the IC50 (neutralizing activity, pseudovirus) [8]?
Its IC50 (neutralizing activity, pseudovirus) is > 10 µg/mL.

And the IC50 (neutralizing activity, pseudovirus) [9]?
The IC50 (neutralizing activity, pseudovirus) was 0.0085 µg/mL.

What about the IC50 (neutralizing activity, pseudovirus) [10] of the same substance?
Its IC50 (neutralizing activity, pseudovirus) is 0.0578 µg/mL.

What about the IC50 (neutralizing activity, pseudovirus) [11] of the same substance?
The IC50 (neutralizing activity, pseudovirus) was > 10 µg/mL.

And the IC50 (neutralizing activity, pseudovirus) [12]?
The IC50 (neutralizing activity, pseudovirus) was 0.272 µg/mL.

What about the IC50 (neutralizing activity, pseudovirus) [13] of the same substance?
The IC50 (neutralizing activity, pseudovirus) was 1.23 µg/mL.

What about the IC50 (neutralizing activity, pseudovirus) [14] of the same substance?
The IC50 (neutralizing activity, pseudovirus) was > 10 µg/mL.

What about the IC50 (neutralizing activity, pseudovirus) [15] of the same substance?
The IC50 (neutralizing activity, pseudovirus) was 0.712 µg/mL.

With VRC01 (antibody) as the substance, how does the IC50, pseudovirus neutralization [16] read?
Its IC50, pseudovirus neutralization is 1.01 µg/mL.

And the IC50 (µg/mL), pseudovirus neutralization [17]?
The IC50 (µg/mL), pseudovirus neutralization was > 50 µg/mL.

What about the IC50 (µg/mL), pseudovirus neutralization [18] of the same substance?
The IC50 (µg/mL), pseudovirus neutralization was 1.57 µg/mL.

And the IC50 (µg/mL), pseudovirus neutralization [19]?
Its IC50 (µg/mL), pseudovirus neutralization is 0.366 µg/mL.

And the IC50 (µg/mL), pseudovirus neutralization [20]?
The IC50 (µg/mL), pseudovirus neutralization was 1.13 µg/mL.

And the IC50 (µg/mL), pseudovirus neutralization [21]?
The IC50 (µg/mL), pseudovirus neutralization was 0.396 µg/mL.

What about the IC50 (µg/mL), pseudovirus neutralization [22] of the same substance?
The IC50 (µg/mL), pseudovirus neutralization was 13 µg/mL.

What about the IC50 (µg/mL), pseudovirus neutralization [23] of the same substance?
Its IC50 (µg/mL), pseudovirus neutralization is 0.077 µg/mL.

What about the IC50 (µg/mL), pseudovirus neutralization [24] of the same substance?
The IC50 (µg/mL), pseudovirus neutralization was 3.4 µg/mL.

And the IC50 (µg/mL), pseudovirus neutralization [25]?
Its IC50 (µg/mL), pseudovirus neutralization is 2.36 µg/mL.

Which IC50 [26] does the source give for b12 (antibody) here?
The IC50 was > 50 µg/mL.

And the IC50 [27]?
Its IC50 is > 50 µg/mL.

What about the IC50 [16] of the same substance?
The IC50 was 5.46 µg/mL.

And the IC50 [28]?
Its IC50 is 2.66 µg/mL.

What about the IC50 [29] of the same substance?
Its IC50 is > 50 µg/mL.

What about the IC50 [30] of the same substance?
Its IC50 is > 50 µg/mL.

What about the IC50 [31] of the same substance?
The IC50 was 1.51 µg/mL.

And the IC50 [32]?
Its IC50 is > 50 µg/mL.

And the IC50 [33]?
The IC50 was > 50 µg/mL.

And the IC50 [34]?
The IC50 was > 50 µg/mL.

What about the IC50 [35] of the same substance?
The IC50 was > 50 µg/mL.

And the IC50 [17]?
Its IC50 is > 50 µg/mL.

What about the IC50 [18] of the same substance?
The IC50 was 13.3 µg/mL.

And the IC50 [19]?
Its IC50 is > 50 µg/mL.

What about the IC50 [20] of the same substance?
Its IC50 is > 50 µg/mL.

And the IC50 [21]?
The IC50 was > 50 µg/mL.

And the IC50 [22]?
The IC50 was > 50 µg/mL.

What about the IC50 [23] of the same substance?
Its IC50 is 13.9 µg/mL.

And the IC50 [24]?
Its IC50 is > 50 µg/mL.

And the IC50 [25]?
The IC50 was > 50 µg/mL.
